Data as given in patent US8759300B2, “Polypeptides and methods of use” (The Research Foundation for the State University of New York, priority 2007, dated 2014).
Read-outs that look alike come from different tables or passages of the source.

Legend:
[1] = test system: GFs (TGF-β1, PDGF-BB, VEGF, FGF-2); assay: Binding of growth factors to FN domains, GFs reported together
Procedure: (§1) 20 μl of 50% v/v peptide-agarose beads are incubated with 125I-PDGF in 0.1 ml of binding buffer (DMEM+2% BSA) at room temperature for 2 hours with rotation. Beads are washed 6 times with DMEM. Bound PDGF-BB are released by the addition of 100 μl of 1M NaOH. The radioactivity bound to FN-beads are quantified in a γ-counter. Nonspecific binding are established from ^125I-PDGF binding to nonconjugated beads, then specific binding derived by subtraction of nonspecific binding from total binding. Binding constants (KD) and Bmax are determined from nonlinear regression of specific binding curves using Prism 4 from GraphPad Software, San Diego, Calif. “Scatchard plots” are derived from the KD and Bmax obtained with non linear regression analysis.
In the Biacore2000 system, binding constants from kinetic data are determined by passing varying concentrations of FN peptides (analytes) over chip surfaces which are coupled with PDGF-BB (ligand), respectively. All kinetic experiments are carried out at 20° C. at a flow rate of 20 μl/min. […] Mass transport experiments have detected little difference in response at different flow rates thus validating data from kinetic experiments. […] Each data set, which consists of a series of sensorgrams from injections of different concentration of analyte over the same surface, are analyzed using kinetic models from Biaevaluation software.

PDGF-BB [2] = molecular target: T1, PDGF-BB (Homo sapiens, UniProt P01127); assay: Surface plasmon resonance (Biacore), PDGF-BB; format: binding
T1 sequence (P01127 82-190 limits assumed): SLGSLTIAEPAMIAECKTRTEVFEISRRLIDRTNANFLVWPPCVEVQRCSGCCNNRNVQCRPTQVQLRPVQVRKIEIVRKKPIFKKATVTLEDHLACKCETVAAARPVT
Procedure: (§2) In the Biacore2000 system, binding constants from kinetic data are determined by passing varying concentrations of FN peptides (analytes) over chip surfaces which are coupled with PDGF-BB (ligand), respectively. All kinetic experiments are carried out at 20° C. at a flow rate of 20 μl/min. For mass transport experiments, each analyte is injected at a fixed concentration and run at flow rates ranging from 5 to 75 μl/min. All analytes are injected over PDGF-BB ligand surfaces as well as over a control surface for 120 s, followed by 300 s of dissociation in running buffer. Regeneration of the sensor chip for subsequent injections is accomplished by pulse of 0.1% SDS. Mass transport experiments have detected little difference in response at different flow rates thus validating data from kinetic experiments. Sensorgrams are prepared and globally fitted using nonlinear least-squares analysis and numerical integration of the differential rate equations with the Biacore Bioevaluation software. Each sensogram generated using a control surface is substracted from the corresponding experimental sensorgrams, and the resulting curves are transformed to concentration units using the molecular mass of the injected species, the equivalence of 1000 resonance units (RU) per 1 ng/mm^2, and a matrix thickness of 100 nm. Each data set, which consists of a series of sensorgrams from injections of different concentration of analyte over the same surface, are analyzed using kinetic models from Biaevaluation software.

FN-null cells = assay: FN-null cell survival on surfaces coated with FN domains; format: cell-based, mouse; details: for FN-null cell survival / proliferation: FNIII8-11 ± named FN domain, or named FN construct, PDGF-BB added 2 hrs after plating; for FN-null cell survival with PDGF at 3 days: surface precoated with 0.15 μM GST-tagged FNIII8-11 ± named FN domain, or named FN construct, PDGF-BB added 1 day after plating
Procedure: To further investigate the response of cells to PDGF-BB bound to FN domains, we investigated the survival response of mouse fibroblasts null for FN (FN−/−), or “FN-null”. First we determined the response of FN-null cells to PDGF-BB in the absence of serum or other sources of exogenous FN. […] Next, FN-null cells were plated on tissue culture plastic surfaces precoated with 0.15 μM GST-tagged FNIII8-11±other FN domains known to have PDGF-BB binding activity and then PDGF-BB added 1 day later. […] Importantly, differential response of FN-null cells, plated on different FN domains, to PDGF-BB was not secondary to differences in attachment as judged by cell counts two hours after plating. The FNIII8-11 central cell binding domain was present in all circumstances.

PDGF-BB [3] = molecular target: T1, PDGF-BB; assay: Equilibrium binding of 125I-PDGF-BB to FN, FN domains and peptides; details: for Kd: equilibrium binding
Procedure: as §1

TGF-β1 [4] = molecular target: T2, TGF-β1 (Homo sapiens, UniProt P01137); assay: Surface plasmon resonance, TGF-β1; format: binding
T2 sequence (P01137 279-390 limits assumed): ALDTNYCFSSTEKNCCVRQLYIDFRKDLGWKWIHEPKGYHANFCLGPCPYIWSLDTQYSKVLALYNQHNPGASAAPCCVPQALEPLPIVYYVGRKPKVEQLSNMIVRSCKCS
Procedure: [The source words this procedure for another target and reports this target under the same test.] as §2

bFGF (FGF-2) = bFGF (FGF-2) (Homo sapiens, UniProt P09038); assay: Equilibrium binding of bFGF (FGF-2) to FN and FN domains; details: method not restated (equilibrium and kinetic binding performed); read-out: KD, bFGF binding
Chain of bFGF (FGF-2) (P09038 143-288): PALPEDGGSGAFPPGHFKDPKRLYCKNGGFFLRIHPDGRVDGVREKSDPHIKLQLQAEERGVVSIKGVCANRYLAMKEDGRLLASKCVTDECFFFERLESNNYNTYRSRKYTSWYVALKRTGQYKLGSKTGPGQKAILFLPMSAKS
Procedure: [The source words this procedure for another target and reports this target under the same test.] as §1

FGF-2 = FGF-2 (Homo sapiens, UniProt P09038); assay: Surface plasmon resonance, FGF-2; details: read-out: KD, FGF-2 binding
Chain of FGF-2 (P09038 143-288): as above
Procedure: [The source words this procedure for another target and reports this target under the same test.] as §2, with “Each sensogram generated using a control surface is substracted from the corresponding experimental sensorgrams, and the resulting curves are transformed to concentration units using the molecular mass of the injected species, the equivalence of 1000 resonance units (RU) per 1 ng/mm^2, and a matrix thickness of 100 nm.” left out

TGF-β1 [5] = molecular target: T2, TGF-β1; assay: Equilibrium binding of TGF-β1 to FN, FN domains and peptides
Procedure: [The source words this procedure for another target and reports this target under the same test.] as §1

EGF = EGF (Homo sapiens, UniProt P01133); assay: Binding of EGF to FN, FN domains and peptides
Chain of EGF (P01133 971-1023 limits assumed, species assumed): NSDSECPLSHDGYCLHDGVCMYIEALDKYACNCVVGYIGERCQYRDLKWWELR

VEGF = molecular target: T3, VEGF (Homo sapiens, UniProt P15692); assay: Surface plasmon resonance, VEGF; format: binding; details: plasmon resonance; read-out: KD, VEGF binding
T3 sequence (P15692 27-191 isoform P15692-4): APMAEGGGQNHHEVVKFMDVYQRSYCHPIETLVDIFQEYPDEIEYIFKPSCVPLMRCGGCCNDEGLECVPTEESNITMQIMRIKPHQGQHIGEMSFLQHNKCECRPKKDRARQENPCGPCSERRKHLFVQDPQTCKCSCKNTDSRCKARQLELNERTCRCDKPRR

[6] = test system: GFs (TGF-β1, PDGF-BB, VEGF, FGF-2); assay: Binding of growth factors to FN domains, GFs reported together; remark: listed apart in the source
[7] = method not restated, read-out: KD, TGF-β1 binding
[8] = method not restated, read-out: KD, PDGF-BB binding
[9] = method not restated (equilibrium and kinetic binding performed)
[10] = plasmon resonance, kinetic binding

B1: FNIII3-6: recombinant FN domain, type III repeats 3-6 (protein)
chain: MGSAPPDTTVDQVDDTSIVVRWSRPQAPITGYRIVYSPSVEGSSTELNLPETANSVTLSDLQPGVQYNITIYAVEENQESTPVVIQQETTGTPRSDTVPSPRDLQFVEVTDVKVTIMWTPPESAVTGYRVDVIPVNLPGEHGQRLPISRNTFAEVTGLSPGVTYYFKVFAVSHGRESKPLTAQQTTKLDAPTNLQFVNETDSTVLVRWTPPRAQITGYRLTVGLTRRGQPRQYNVGPSVSKYPLRNLQPASEYTVSLVAIKGNQESPKATGVFTTLQPGSSIPPYNTEVTETTIVITWTPAPRIGFKLGVRPSQGGEAPREVTSDSGSIVVSGLTPGVEYVYTIQVLRDGQERDAPIVNKVVTPLSTSHHHHHHC
[1]
  Binding of the GFs tested, in words: In no case did any GF bind
PDGF-BB [2]; surface resonance
  PDGF-BB binding, in words: no binding
FN-null cells; cells plated on named FN construct, or on FNIII8-11 ± named domain
  FN-null cell survival / proliferation, summary statement: did not support cell survival
PDGF-BB [3]; equilibrium binding and/or plasmon resonance
  PDGF-BB binding, in words: did not

B2: FNIII12-15: heparin II binding domain of FN (protein)
chain: MGSTIPAPTDLKFTQVTPTSLSAQWTPPNVQLTGYRVRVTPKEKTGPMKEINLAPDSSSVVVSGLMVATKYEVSVYALKDTLTSRPAQGVVTTLENVSPPRRARVTDATETTITISWRTKTETITGFQVDAVPANGQTPIQRTIKPDVRSYTITGLQPGTDYKIYLYTLNDNARSSPVVIDASTAIDAPSNLRFLATTPNSLLVSWQPPRARITGYIIKYEKPGSPPREVVPRPRPGVTEATITGLEPGTEYTIYVIALKNNQKSEPLIGRKKTGQEALSQTTISWAPFQDTSEYIISCHPVGTDEEPLQFRVPGTSTSATLTGLTRGATYNVIVEALKDQQRHKVREEVVTVGNSVNEGTSHHHHHHC
TGF-β1 [4]; [7]
  Kd: 16 nM
bFGF (FGF-2)
  Kd: 130 nM
PDGF-BB [2]; [8]
  Kd: 6.8 nM
FGF-2; method not restated
  Kd: 170 nM
PDGF-BB [3]
  Kd: 6.8 nM
TGF-β1 [5]; [9]
  Kd: 16 nM

B3: FNIII1-7: FN domain, type III repeats 1-7 (protein)
chain: MGSGPVEVFITETPSQPNSHPIQWNAPQPSHISKYILRWRPKNSVGRWKEATIPGHLNSYTIKGLKPGVVYEGQLISIQQYGHQEVTRFDFTTTSTSTPVTSNTVTGETTPFSPLVATSESVTEITASSFVVSWVSASDTVSGFRVEYELSEEGDEPQYLDLPSTATSVNIPDLLPGRKYIVNVYQISEDGEQSLILSTSQTTAPDAPPDTTVDQVDDTSIVVRWSRPQAPITGYRIVYSPSVEGSSTELNLPETANSVTLSDLQPGVQYNITIYAVEENQESTPVVIQQETTGTPRSDTVPSPRDLQFVEVTDVKVTIMWTPPESAVTGYRVDVIPVNLPGEHGQRLPISRNTFAEVTGLSPGVTYYFKVFAVSHGRESKPLTAQQTTKLDAPTNLQFVNETDSTVLVRWTPPRAQITGYRLTVGLTRRGQPRQYNVGPSVSKYPLRNLQPASEYTVSLVAIKGNQESPKATGVFTTLQPGSSIPPYNTEVTETTIVITWTPAPRIGFKLGVRPSQGGEAPREVTSDSGSIVVSGLTPGVEYVYTIQVLRDGQERDAPIVNKVVTPLSPPTNLHLEANPDTGVLTVSWERSTTPDITGYRITTTPTNGQQGNSLEEVVHADQSSCTFDNLSPGLEYNVSVYTVKDDKESVPISDTIIPETSHHHHHHC
[1]
  Binding of the GFs tested, in words: all four GFs bound
TGF-β1 [4]; [10]
  Kd: 18 nM
bFGF (FGF-2)
  Kd: 4.1 nM
PDGF-BB [2]; [10]
  Kd: 100 nM
PDGF-BB [3]
  Kd: 75 nM
TGF-β1 [5]; equilibrium binding
  Kd: 17 nM

B4: FNIII12-14: recombinant heparinII-binding domain of FN, type III repeats 12-14 (protein)
chain: MGSAIPAPTDLKFTQVTPTSLSAQWTPPNVQLTGYRVRVTPKEKTGPMKEINLAPDSSSVVVSGLMVATKYEVSVYALKDTLTSRPAQGVVTTLENVSPPRRARVTDATETTITISWRTKTETITGFQVDAVPANGQTPIQRTIKPDVRSYTITGLQPGTDYKIYLYTLNDNARSSPVVIDASTAIDAPSNLRFLATTPNSLLVSWQPPRARITGYIIKYEKPGSPPREVVPRPRPGVTEATITGLEPGTEYTIYVIALKNNQKSEPLIGRKKTTSHHHHHHC
TGF-β1 [4]; [7]
  Kd: 7.6 nM
bFGF (FGF-2)
  Kd: 1.9 nM
PDGF-BB [2]; [8]
  Kd: 55 nM
FN-null cells
  FN-null cell survival / proliferation: enhance survival
  FN-null cell survival with PDGF at 3 days: increased survival
PDGF-BB [3]
  Kd: 35 nM
TGF-β1 [5]; [9]
  Kd: 7.6 nM

B5: IIICS: variably-spliced IIICS domain of FN (protein)
chain: MGSDELPQLVTLPHPNLHGPEILDVPSTVQKTPFVTHPGYDTGNGIQLPGTSGQQPSVGQQMIFEEHGFRRTTPPTTATPIRHRPRPYPPNVGEEIQIGHIPREDVDYHLYPHGPGLNPNASTTSHHHHHHC
EGF
  EGF binding, in words: failed to bind
FN-null cells
  FN-null cell survival / proliferation: enhance survival
  FN-null cell survival with PDGF at 3 days: increased survival
PDGF-BB [3]
  Kd: 350 nM
TGF-β1 [5]; [9]
  Kd: 74 nM

B6: FNIII12-13: FN domain, type III repeats 12-13 (protein)
chain: MGSAIPAPTDLKFTQVTPTSLSAQWTPPNVQLTGYRVRVTPKEKTGPMKEINLAPDSSSVVVSGLMVATKYEVSVYALKDTLTSRPAQGVVTTLENVSPPRRARVTDATETTITISWRTKTETITGFQVDAVPANGQTPIQRTIKPDVRSYTITGLQPGTDYKIYLYTLNDNARSSPVVIDASTTSHHHHHHC
PDGF-BB [3]
  Kd: 75 nM

B7: FNIII12-V15: composite heparinII-binding and variably-spliced IIICS domains of FN (protein)
chain: MGSAIPAPTDLKFTQVTPTSLSAQWTPPNVQLTGYRVRVTPKEKTGPMKEINLAPDSSSVVVSGLMVATKYEVSVYALKDTLTSRPAQGVVTTLENVSPPRRARVTDATETTITISWRTKTETITGFQVDAVPANGQTPIQRTIKPDVRSYTITGLQPGTDYKIYLYTLNDNARSSPVVIDASTAIDAPSNLRFLATTPNSLLVSWQPPRARITGYIIKYEKPGSPPREVVPRPRPGVTEATITGLEPGTEYTIYVIALKNNQKSEPLIGRKKTDELPQLVTLPHPNLHGPEILDVPSTVQKTPFVTHPGYDTGNGIQLPGTSGQQPSVGQQMIFEEHGFRRTTPPTTATPIRHRPRPYPPNVGEEIQIGHIPREDVDYHLYPHGPGLNPNASTGQEALSQTTISWAPFQDTSEYIISCHPVGTDEEPLQFRVPGTSTSATLTGLTRGATYNVIVEALKDQQRHKVREEVVTVGNSVNEGTSHHHHHHC
bFGF (FGF-2)
  Kd: 37 nM
PDGF-BB [2]; [10]
  Kd: 17 nM
FN-null cells
  FN-null cell survival / proliferation: enhance survival
FGF-2; plasmon resonance
  Kd: 37 nM
PDGF-BB [3]
  Kd: 21 nM
TGF-β1 [5]; equilibrium binding
  Kd: 97 nM
VEGF
  Kd: 0.6 nM
[6]
  GF binding with up to 2.5 M NaCl or pH lowered to about 2.0: failed to demonstrate any diminution
